Experimental findings from the supplement of paper PMC5998384 are described below.

Data set [1] concerns HeLa Kyoto. Nature of the data set: solubility change mitosis vs G1/S (difference of NP-40 vs SDS log2 ratios) (log2 ratio difference); higher = more soluble in mitosis.
In data set [2] the test system is HeLa Kyoto. Description: thermal stability score vs G1/S (z-score of summed log2 fold changes over temperatures); higher = more thermally stable than in G1/S.
Data set [3] concerns HeLa Kyoto. Nature of the data set: solubility in G1/S (NP-40 vs SDS abundance) (log2 ratio); higher = more soluble. The following applies: cell cycle stage: G1/S.
The subject of data set [4] is HeLa Kyoto. Description: melting temperature (median over replicates), in situ; higher = more thermally stable.
The mark [5] stands for this setting: cell cycle stage: early G1 (4.5 h after nocodazole release).
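Wherever melting temperature (median over replicates), in situ is given: HeLa Kyoto cells synchronized by double thymidine or nocodazole block, proteins quantified by TMT10plex mass spectrometry, three independent biological replicates.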
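Wherever solubility change mitosis vs G1/S (difference of NP-40 vs SDS log2 ratios) is given: synchronized HeLa Kyoto cells (double thymidine block for G1/S, nocodazole release for mitosis), protein amounts in NP-40 versus SDS lysates quantified by mass spectrometry, three biological replicates.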
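Wherever solubility in G1/S (NP-40 vs SDS abundance) is given: HeLa Kyoto cells arrested at G1/S by double thymidine block, proteins quantified by TMT10plex mass spectrometry in mild NP-40 versus SDS extracts, three biological replicates.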
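Wherever thermal stability score vs G1/S (z-score of summed log2 fold changes over temperatures) is given: synchronized HeLa Kyoto cells, proteins quantified by TMT10plex mass spectrometry, three biological replicates, mitosis taken 0.5 h after nocodazole release, G1/S directly after double thymidine block.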

Take “MVEEENIRVVRCGGSELNFRRAVFSADSKYIFCVSGDFVKVYSTVTEECVHILHGHRNLVTGIQLNPNNHLQLYSCSLDGTIKLWDYIDGILIKTFIVGCKLHALFTLAQAEDSVFVIVNKEKPDIFQLVSVKLPKSSSQEVEAKELSFVLDYINQSPKCIAFGNEGVYVAAVREFYLSVYFFKKKTTSRFTLSSSRNKKHAKNNFTCVACHPTEDCIASGHMDGKIRLWRNFYDDKKYTYTCLHWHHDMVMDLAFSVTGTSLLSGGRESVLVEWRDATEKNKEFLPRLGATIEHISVSPAGDLFCTSHSDNKIIIIHRNLEASAVIQGLVKDRSIFTGLMIDPRTKALVLNGKPGHLQFYSLQSDKQLYNLDIIQQEYINDYGLIQIELTKAAFGCFGNWLATVEQRQEKETELELQMKLWMYNKKTQGFILNTKINMPHEDCITALCFCNAEKSEQPTLVTASKDGYFKVWILTDDSDIYKKAVGWTCDFVGSYHKYQATNCCFSEDGSLLAVSFEEIVTIWDSVTWELKCTFCQRAGKIRHLCFGRLTCSKYLLGATENGILCCWNLLSCALEWNAKLNVRVMEPDPNSENIAAISQSSVGSDLFVFKPSEPRPLYIQKGISREKVQWGVFVPRDVPESFTSEAYQWLNRSQFYFLTKSQSLLTFSTKSPEEKLTPTSKQLLAEESLPTTPFYFILGKHRQQQDEKLNETLENELVQLPLTENIPAISELLHTPAHVLPSAAFLCSMFVNSLLLSKETKSAKEIPEDVDMEEEKESEDSDEENDFTEKVQDTSNTGLGEDIIHQLSKSEEKELRKFRKIDYSWIAAL [WDR75]”: in the data set on HeLa Kyoto [1], the “solubility change mitosis (log2)” value amounted to 0.372. Besides, the figures for the thermal stability score in the data set on HeLa Kyoto [2] (setting [5]) and in the data set with HeLa Kyoto [2] (cell cycle stage: mitosis) were 1.76 and 0.92, respectively. Also, in the data set with HeLa Kyoto [3], the “solubility in G1/S (log2)” value was -1.21. The melting temperature is 50 °C with HeLa Kyoto [4] (cell cycle stage: G1/S) and 50.1 °C with HeLa Kyoto [4] (cell cycle stage: mitosis).
With “MVHFCGLLTLHREPVPLKSISVSVNIYEFVAGVSATLNYENEEKVPLEAFFVFPMDEDSAVYSFEALVDGKKIVAELQDKMKARTNYEKAISQGHQAFLLEGDSSSRDVFSCNVGNLQPGSKAAVTLKYVQELPLEADGALRFVLPAVLNPRYQFSGSSKDSCLNVKTPIVPVEDLPYTLSMVATIDSQHGIEKVQSNCPLSPTEYLGEDKTSAQVSLAAGHKFDRDVELLIYYNEVHTPSVVLEMGMPNMKPGHLMGDPSAMVSFYPNIPEDQPSNTCGEFIFLMDRSGSMQSPMSSQDTSQLRIQAAKETLILLLKSLPIGCYFNIYGFGSSYEACFPESVKYTQQTMEEALGRVKLMQADLGGTEILAPLQNIYRGPSIPGHPLQLFVFTDGEVTDTFSVIKEVRINRQKHRCFSFGIGEGTSTSLIKGIARASGGTSEFITGKDRMQSKALRTLKRSLQPVVEDVSLSWHLPPGLSAKMLSPEQTVIFRGQRLISYAQLTGRMPAAETTGEVCLKYTLQGKTFEDKVTFPLQPKPDVNLTIHRLAAKSLLQTKDMGLRETPASDKKDALNLSLESGVISSFTAFIAINKELNKPVQGPLAHRDVPRPILLGASAPLKIKCQSGFRKALHSDRPPSASQPRGELMCYKAKTFQMDDYSLCGLISHKDQHSPGFGENHLVQLIYHQNANGSWDLNEDLAKILGMSLEEIMAAQPAELVDSSGWATILAVIWLHSNGKDLKCEWELLERKAVAWMRAHAGSTMPSVVKAAITFLKSSVDPAIFAF [VWA5A]”, the “solubility change mitosis (log2)” value in the data set on HeLa Kyoto [1] was -0.132. Moreover, the figures for the thermal stability score in the data set on HeLa Kyoto [2] (setting [5]) and in the data set with HeLa Kyoto [2] (cell cycle stage: mitosis) were -0.428 and -0.133, respectively. Moreover, the “solubility in G1/S (log2)” value with HeLa Kyoto [3] turned out to be 0.137. The results for the melting temperature in the data set with HeLa Kyoto [4] (cell cycle stage: G1/S) and with HeLa Kyoto [4] (cell cycle stage: mitosis) were 52.3 °C and 52.2 °C, respectively.
Turning to “MVKLDIHTLAHHLKQERLYVNSEKQLIQRLNADVLKTAEKLYRTAWIAKQQRINLDRLIITSAEASPAECCQHAKILEDTQFVDGYKQLGFQETAYGEFLSRLRENPRLIASSLVAGEKLNQENTQSVIYTVFTSLYGNCIMQEDESYLLQVLRYLIEFELKESDNPRRLLRRGTCAFSILFKLFSEGLFSAKLFLTATLHEPIMQLLVEDEDHLETDPNKLIERFSPSQQEKLFGEKGSDRFRQKVQEMVESNEAKLVALVNKFIGYLKQNTYCFPHSLRWIVSQMYKTLSCVDRLEVGEVRAMCTDLLLACFICPAVVNPEQYGIISDAPINEVARFNLMQVGRLLQQLAMTGSEEGDPRTKSSLGKFDKSCVAAFLDVVIGGRAVETPPLSSVNLLEGLSRTVVYITYSQLITLVNFMKSVMSGDQLREDRMALDNLLANLPPAKPGKSSSLEMTPYNTPQLSPATTPANKKNRLPIATRSRSRTNMLMDLHMDHEGSSQETIQEVQPEEVLVISLGTGPQLTPGMMSENEVLNMQLSDGGQGDVPVDENKLHGKPDKTLRFSLCSDNLEGISEGPSNRSNSVSSLDLEGESVSELGAGPSGSNGVEALQLLEHEQATTQDNLDDKLRKFEIRDMMGLTDDRDISETVSETWSTDVLGSDFDPNIDEDRLQEIAGAAAENMLGSLLCLPGSGSVLLDPCTGSTISETTSEAWSVEVLPSDSEAPDLKQEERLQELESCSGLGSTSDDTDVREVSSRPSTPGLSVVSGISATSEDIPNKIEDLRSECSSDFGGKDSVTSPDMDEITHGAHQLTSPPSQSESLLAMFDPLSSHEGASAVVRPKVHYARPSHPPPDPPILEGAVGGNEARLPNFGSHVLTPAEMEAFKQRHSYPERLVRSRSSDIVSSVRRPMSDPSWNRRPGNEERELPPAAAIGATSLVAAPHSSSSSPSKDSSRGETEERKDSDDEKSDRNRPWWRKRFVSAMPKAPIPFRKKEKQEKDKDDLGPDRFSTLTDDPSPRLSAQAQVAEDILDKYRNAIKRTSPSDGAMANYESTGDNHDRDLSSKLLYHSDKEVMGDGESAHDSPRDEALQNISADDLPDSASQAAHPQDSAFSYRDAKKKLRLALCSADSVAFPVLTHSTRNGLPDHTDPEDNEIVCFLKVQIAEAINLQDKNLMAQLQETMRCVCRFDNRTCRKLLASIAEDYRKRAPYIAYLTRCRQGLQTTQAHLERLLQRVLRDKEVANRYFTTVCVRLLLESKEKKIREFIQDFQKLTAADDKTAQVEDFLQFLYGAMAQDVIWQNASEEQLQDAQLAIERSVMNRIFKLAFYPNQDGDILRDQVLHEHIQRLSKVVTANHRALQIPEVYLREAPWPSAQSEIRTISAYKTPRDKVQCILRMCSTIMNLLSLANEDSVPGADDFVPVLVFVLIKANPPCLLSTVQYISSFYASCLSGEESYWWMQFTAAVEFIKTIDDRK [GAPVD1]”, in the data set on HeLa Kyoto [1], the “solubility change mitosis (log2)” value was -0.131. The thermal stability score in the data set on HeLa Kyoto [2] (setting [5]) amounted to 1.88; in the data set with HeLa Kyoto [2] (cell cycle stage: mitosis) it was 3.33. The “solubility in G1/S (log2)” value with HeLa Kyoto [3] is -0.136. The melting temperature in the data set on HeLa Kyoto [4] (cell cycle stage: G1/S) was determined as 49.5 °C; in the data set on HeLa Kyoto [4] (cell cycle stage: mitosis), 49.8 °C.
Regarding “MVLADLGRKITSALRSLSNATIINEEVLNAMLKEVCTALLEADVNIKLVKQLRENVKSAIDLEEMASGLNKRKMIQHAVFKELVKLVDPGVKAWTPTKGKQNVIMFVGLQGSGKTTTCSKLAYYYQRKGWKTCLICADTFRAGAFDQLKQNATKARIPFYGSYTEMDPVIIASEGVEKFKNENFEIIIVDTSGRHKQEDSLFEEMLQVANAIQPDNIVYVMDASIGQACEAQAKAFKDKVDVASVIVTKLDGHAKGGGALSAVAATKSPIIFIGTGEHIDDFEPFKTQPFISKLLGMGDIEGLIDKVNELKLDDNEALIEKLKHGQFTLRDMYEQFQNIMKMGPFSQILGMIPGFGTDFMSKGNEQESMARLKKLMTIMDSMNDQELDSTDGAKVFSKQPGRIQRVARGSGVSTRDVQELLTQYTKFAQMVKKMGGIKGLFKGGDMSKNVSQSQMAKLNQQMAKMMDPRVLHHMGGMAGLQSMMRQFQQGAAGNMKGMMGFNNM [SRP54]”, in the data set with HeLa Kyoto [1], the “solubility change mitosis (log2)” value was determined as 0.157. Besides, the thermal stability score is 0.232 with HeLa Kyoto [2] (setting [5]) and 0.227 in the data set with HeLa Kyoto [2] (cell cycle stage: mitosis). In the data set on HeLa Kyoto [3], the “solubility in G1/S (log2)” value came to 0.193. For the same sequence, the melting temperature in the data set on HeLa Kyoto [4] (cell cycle stage: G1/S) worked out at 52 °C; in the data set with HeLa Kyoto [4] (cell cycle stage: mitosis), 50.4 °C.
For “MVLGPEQKMSDDSVSGDHGESASLGNINPAYSNPSLSQSPGDSEEYFATYFNEKISIPEEEYSCFSFRKLWAFTGPGFLMSIAYLDPGNIESDLQSGAVAGFKLLWILLLATLVGLLLQRLAARLGVVTGLHLAEVCHRQYPKVPRVILWLMVELAIIGSDMQEVIGSAIAINLLSVGRIPLWGGVLITIADTFVFLFLDKYGLRKLEAFFGFLITIMALTFGYEYVTVKPSQSQVLKGMFVPSCSGCRTPQIEQAVGIVGAVIMPHNMYLHSALVKSRQVNRNNKQEVREANKYFFIESCIALFVSFIINVFVVSVFAEAFFGKTNEQVVEVCTNTSSPHAGLFPKDNSTLAVDIYKGGVVLGCYFGPAALYIWAVGILAAGQSSTMTGTYSGQFVMEGFLNLKWSRFARVVLTRSIAIIPTLLVAVFQDVEHLTGMNDFLNVLQSLQLPFALIPILTFTSLRPVMSDFANGLGWRIAGGILVLIICSINMYFVVVYVRDLGHVALYVVAAVVSVAYLGFVFYLGWQCLIALGMSFLDCGHTCHLGLTAQPELYLLNTMDADSLVSR [SLC11A2]”, the “solubility change mitosis (log2)” value with HeLa Kyoto [1] was -0.211. In addition, the thermal stability score was 2.43 in the data set with HeLa Kyoto [2] (setting [5]) and -0.114 in the data set with HeLa Kyoto [2] (cell cycle stage: mitosis). Moreover, the “solubility in G1/S (log2)” value with HeLa Kyoto [3] was -0.142. Further, the melting temperature was determined as 58.8 °C with HeLa Kyoto [4] (cell cycle stage: G1/S) and 57.6 °C in the data set on HeLa Kyoto [4] (cell cycle stage: mitosis).
